# Data as given in US9327008B2, “Cell-permeant peptide-based inhibitor of kinases” (Purdue Research Foundation, priority 2008, dated 2016).
# How the values were obtained:
# Assay type in all cases: biochemical
# [1] = target: T1, PKG1α (Homo sapiens, UniProt Q13976); test: Millipore radiometric kinase activity assay, PKG1α (h); details: peptide 100 μM
# T1 construct: purchased Millipore (radiometric assay service)
# T1 sequence (Q13976 1-671): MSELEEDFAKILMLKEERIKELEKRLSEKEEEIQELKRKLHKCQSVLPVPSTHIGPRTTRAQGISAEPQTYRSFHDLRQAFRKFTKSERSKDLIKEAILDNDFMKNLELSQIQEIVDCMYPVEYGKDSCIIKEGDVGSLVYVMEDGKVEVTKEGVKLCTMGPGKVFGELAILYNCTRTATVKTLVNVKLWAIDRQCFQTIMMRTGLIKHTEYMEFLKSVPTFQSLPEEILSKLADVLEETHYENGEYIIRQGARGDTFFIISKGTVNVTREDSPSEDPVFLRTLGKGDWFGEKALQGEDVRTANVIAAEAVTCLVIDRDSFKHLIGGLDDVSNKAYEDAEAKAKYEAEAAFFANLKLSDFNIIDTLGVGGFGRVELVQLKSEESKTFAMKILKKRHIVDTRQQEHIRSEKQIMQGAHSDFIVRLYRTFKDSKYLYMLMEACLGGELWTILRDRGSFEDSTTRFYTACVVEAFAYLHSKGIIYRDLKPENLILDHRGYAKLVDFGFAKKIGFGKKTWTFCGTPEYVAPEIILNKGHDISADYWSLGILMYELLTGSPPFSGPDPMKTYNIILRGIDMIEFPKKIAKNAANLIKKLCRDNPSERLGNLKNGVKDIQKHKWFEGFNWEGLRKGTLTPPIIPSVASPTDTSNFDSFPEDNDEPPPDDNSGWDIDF
# Description: (§1) A commercial radiometric assay service (Millipore, Billerica, Mass.) was used to test the specificity and potency of peptides containing a coupled transduction domain and therapeutic domain, hereinafter “complete peptides”). In these assays, if the kinase is not inhibited by an inhibitor peptide, a positively charged substrate is phosphorylated with a radiolabeled phosphate group from an ATP.
# (§2) In a final reaction volume of 25 μL, PKG1α (h) (5-10 mU) is incubated with 8 mM MOPS pH 7.0, 0.2 mM EDTA, 10 μM cGMP, 200 μM […] [SEQ ID NO: 62], 10 mM MgAcetate and [γ-^33P-ATP] (specific activity approx. 500 cpm/pmol, concentration as required). The reaction is initiated by the addition of the MgATP mix. After incubation for 40 minutes at room temperature, the reaction is stopped by the addition of 5 μL of a 3% phosphoric acid solution. 10 μL of the reaction is then spotted onto a P30 filtermat and washed three times for 5 minutes in 75 mM phosphoric acid and once in methanol prior to drying and scintillation counting.
# IC50 values for inhibitor peptides were determined using Millipore's IC50Profiler Express service. The IC50 value was estimated from a 10-point curve of one-half log dilutions. […]
# [2] = target: T2, CHK1 (Homo sapiens, UniProt O14757); test: Millipore radiometric kinase activity assay, CHK1 (h)
# T2 construct: purchased Millipore (assay service)
# T2 sequence (O14757 1-476): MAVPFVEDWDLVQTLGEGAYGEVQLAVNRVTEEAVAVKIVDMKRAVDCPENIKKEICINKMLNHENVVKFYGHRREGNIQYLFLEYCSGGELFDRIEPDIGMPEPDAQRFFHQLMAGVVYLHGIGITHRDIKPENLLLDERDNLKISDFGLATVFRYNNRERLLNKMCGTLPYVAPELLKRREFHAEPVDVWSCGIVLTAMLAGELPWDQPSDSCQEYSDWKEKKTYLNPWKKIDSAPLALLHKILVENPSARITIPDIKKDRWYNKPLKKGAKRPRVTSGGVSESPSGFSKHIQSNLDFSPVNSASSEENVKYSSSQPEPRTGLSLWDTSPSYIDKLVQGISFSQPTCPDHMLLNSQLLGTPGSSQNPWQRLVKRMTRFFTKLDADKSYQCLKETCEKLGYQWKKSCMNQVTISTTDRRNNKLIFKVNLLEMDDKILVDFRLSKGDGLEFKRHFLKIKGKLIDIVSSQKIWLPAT
# Description: as §1
# as §2, with “CHK1” for “PKG1α”, “EDTA,” for “EDTA, 10 μM cGMP,”, “53],” for “62],”
# (§3) IC50 values for inhibitor peptides were determined using Millipore's IC50Profiler Express service. The IC50 value was estimated from a 10-point curve of one-half log dilutions. For peptides tested for specificity, the concentration of the peptides that inhibited approximately 95% of MK2 activity was chosen to profile against a battery of kinases related to MK2, cell viability, or human disease from MilliporeKinaseProfiler service. In both assays, compounds were supplied in dimethylsulfoxide (DMSO). Every kinase activity measurement was conducted in duplicate.
# (§4) Therapeutic inhibitor peptides were assayed for activity against human kinases related to MK2, cell viability, or human disease. The assays were performed using concentrations of therapeutic inhibitor peptides that yielded 2% to 8% of normal MK2 activity. Error is reported as the standard deviation between 2 samples, and “c” is rat AMPK whereas all other kinases used are human kinases.
# [3] = target: T3, FGFR1 (Homo sapiens, UniProt P11362); test: Millipore radiometric kinase activity assay, FGFR1 (h)
# T3 construct: purchased Millipore (assay service)
# T3 sequence (P11362 22-822): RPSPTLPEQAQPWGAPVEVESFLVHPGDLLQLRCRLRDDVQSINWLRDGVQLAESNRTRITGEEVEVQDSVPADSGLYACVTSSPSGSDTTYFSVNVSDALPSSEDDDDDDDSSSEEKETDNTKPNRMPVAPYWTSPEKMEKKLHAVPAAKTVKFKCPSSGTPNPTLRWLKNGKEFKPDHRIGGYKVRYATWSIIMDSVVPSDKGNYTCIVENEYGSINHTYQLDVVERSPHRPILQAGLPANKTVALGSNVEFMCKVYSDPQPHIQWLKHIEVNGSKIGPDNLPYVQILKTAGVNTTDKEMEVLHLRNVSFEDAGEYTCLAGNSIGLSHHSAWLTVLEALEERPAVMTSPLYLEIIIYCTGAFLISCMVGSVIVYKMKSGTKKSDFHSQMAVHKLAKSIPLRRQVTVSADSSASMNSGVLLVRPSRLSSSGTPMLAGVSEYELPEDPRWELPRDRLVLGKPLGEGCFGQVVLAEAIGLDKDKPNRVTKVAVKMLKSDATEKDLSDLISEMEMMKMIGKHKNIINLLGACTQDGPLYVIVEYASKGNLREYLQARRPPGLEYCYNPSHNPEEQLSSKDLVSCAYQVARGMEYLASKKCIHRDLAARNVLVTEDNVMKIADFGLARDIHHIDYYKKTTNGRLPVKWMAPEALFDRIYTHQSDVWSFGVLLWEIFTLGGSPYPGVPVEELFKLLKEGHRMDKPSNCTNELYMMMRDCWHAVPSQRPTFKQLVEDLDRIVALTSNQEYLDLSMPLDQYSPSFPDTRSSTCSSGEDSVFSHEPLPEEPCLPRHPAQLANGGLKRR
# Description: as §1
# In a final reaction volume of 25 μL, FGFR1 (h) (5-10 mU) is incubated with 8 mM MOPS pH 7.0, 0.2 mM EDTA, 250 μM […] [SEQ ID NO: 56], 10 mM MgAcetate and [γ-^33P-ATP] (specific activity approx. 500 cpm/pmol, concentration as required). The reaction is initiated by the addition of the MgATP mix. After incubation for 40 minutes at room temperature, the reaction is stopped by the addition of 5 μL, of a 3% phosphoric acid solution. 10 μL, of the reaction is then spotted onto a P30 filtermat and washed three times for 5 minutes in 75 mM phosphoric acid and once in methanol prior to drying and scintillation counting.
# as §3, §4
Sequence,PKG1α Kinase Activity (%) (+SD %) [1],CHK1 Kinase Activity (%) (+SD %) ([2]; peptide 100 μM),FGFR1 Kinase Activity (%) (+SD %) ([3]; peptide 100 μM),CHK1 Kinase Activity (%) (+SD %) ([2]; peptide 30 μM),FGFR1 Kinase Activity (%) (+SD %) ([3]; peptide 30 μM)
KAFAKLAARLYRKALARQLGVAA,25 (2) %,68 (0) %,35 (1) %,–,–
WLRRIKAWLRRIKALNRQLGVAA,12 (2) %,54 (6) %,22 (1) %,31 (5) %,27 (1) %
